Measurements published in patent publication US20200300873A1.

T1: Human hepcidin peptide (hepcidin-25) (human)
T1 sequence (peptide): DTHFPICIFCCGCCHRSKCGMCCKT


Experiments:
[1] = target: Hepcidin MAb 583; test: competitive ELISA on mAb 583 coated wells; competitor biotinylated hepcidin-25 tracer; standard at 0 ng/mL
[2] = target: Hepcidin MAb 583; test: competitive ELISA on mAb 583 coated wells; competitor biotinylated hepcidin-25 tracer; standard at 10 ng/mL
[3] = target: Hepcidin MAb 583; test: competitive ELISA on mAb 583 coated wells; competitor biotinylated hepcidin-25 tracer; standard at 25 ng/mL
[4] = target: Hepcidin MAb 583; test: competitive ELISA on mAb 583 coated wells; competitor biotinylated hepcidin-25 tracer; standard at 50 ng/mL
[5] = target: Hepcidin MAb 583; test: competitive ELISA on mAb 583 coated wells; competitor biotinylated hepcidin-25 tracer; standard at 100 ng/mL
[6] = target: Hepcidin MAb 583; test: competitive ELISA on mAb 583 coated wells; competitor biotinylated hepcidin-25 tracer; standard at 2.5 ng/mL
[7] = target: Hepcidin MAb 583; test: competitive ELISA on mAb 583 coated wells; competitor biotinylated hepcidin-25 tracer; standard at 250 ng/mL
[8] = target: Hepcidin MAb 583; test: competitive ELISA on mAb 583 coated wells; competitor biotinylated hepcidin-25 tracer; standard at 1000 ng/mL
[9] = target: T1, Human hepcidin peptide (hepcidin-25) (human); test: method not stated
[10] = target: T1, Human hepcidin peptide (hepcidin-25) (human); test: Biacore (SPR); lower end of the estimated range 7-8 pM
[11] = target: T1, Human hepcidin peptide (hepcidin-25) (human); test: Biacore (SPR); upper end of the estimated range 7-8 pM

Hepcidin MAb 583, sequence (heavy, as listed by the source, chain 1 of 2): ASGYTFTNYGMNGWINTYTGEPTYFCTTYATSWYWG
Hepcidin MAb 583, sequence (light, as listed by the source, chain 2 of 2): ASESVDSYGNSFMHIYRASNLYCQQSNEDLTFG

Row | Absorbance (450 nm) [1] [OD 450 nm] | Absorbance (450 nm) [2] [OD 450 nm] | Absorbance (450 nm) [3] [OD 450 nm] | Absorbance (450 nm) [4] [OD 450 nm] | Absorbance (450 nm) [5] [OD 450 nm] | Absorbance (450 nm) [6] [OD 450 nm] | Absorbance (450 nm) [7] [OD 450 nm] | Absorbance (450 nm) [8] [OD 450 nm] | affinity (unit not given) [9] | Kd [10] [pM] | Kd [11] [pM] | Binder
1 | 2.36 | 1.61 | 0.9 | 0.47 | 0.24 | 2.14 | 0.1 | 0.03 |  |  |  | DTHFPICIFCCGCCHRSKCGMCCKT [Human hepcidin peptide (hepcidin-25)]
2 |  |  |  |  |  |  |  |  | 5.16e-11 | 7 to 8 | 7 to 8 | Hepcidin MAb 583 (antibody, from a related filing, V domains shown, part only) VH: QIQLVQSGPELKKPGETVKISCKASGYTFTNYGMNWVKQAPGKGLKWMGWINTYTGEPTYADDFKGRFAFSLETSASTAYLQINNLKNEDTATYFCTTYATSWYWGQG VL: DIVLTQSPASLAVSLGQRATISCRASESVDSYGNSFMHWYQQKPGQPPKLLIYRASNLESGIPARFSGSGSRTDFTLTINPVEADDVATYYCQQSNEDLTFG
